# Measured values taken from patent publication US20120316085A1.
# B1: aM parental murine Fab (Fab, V domains shown)
# VH: QIQLVQSGPELKKPGETVRISCKASGYTFTTAGMQWVQKMPGKGLKWIGWINTHSGVPKYAEDFKGRFAFSLETSASTAYLQMTNLNNEDTATYFCARGYGKGGYFAMDYWGQGTSVTVSS
# VL: DVVMTQIPFSLPVSLGDQASISCRSSQSLVHSNGNTYLHWYVQKPGQSPKLLIYKVSNRFSGVPDRFSGSGSGTYFTLKISRVEAEDLGVYFCSQSTRVPWTFGGGTKLEIK
# What was measured:
# [1] = target: c-Myc-containing recombinant protein; test: SPR; KD against WT as reference
# [2] = target: c-Myc-containing recombinant protein; test: SPR (Biacore T200), c-Myc-containing recombinant protein immobilised, soluble Fab injected at 5-80 nM, 1:1 Langmuir fit
binder,measurement,setting,value
B1,Fold change,[1],1 fold
same,Kd,[2],0.11 µM
same,koff,[2],0.018 s⁻¹
same,kon,[2],160000 M⁻¹ s⁻¹
